Data on one molecule can be found in patent US20240043489A1, “Cytokine Prodrugs Comprising a Cleavable Linker” (Trutino Biosciences Inc., priority 2020, published 2024).

Series [1] deals with CTLL-2 cells. Description: CTLL-2 proliferation assay (MTT). The class given is cell-based. The protocol: Recombinant MMP9 and/or MMP2 (R&D Systems) was first activated with p-aminophenylmercuric acetate and this activated protease or equivalent amount of activating solution without the protease was used to digest or mock digest the fusion protein for 1 hr, 2 hr, 4 hr and overnight (18-22 hr) at 37 C. Cleavage assays are set up in TCNB buffer: 50 mM Tris, 10 mM CaCl2), 150 mM NaCl, 0.05% Brij-35 (w/v), pH 7.5. Digested protein was aliquoted and stored at −80° C. prior to testing. Aliquots of digests were subsequently analyzed by SDS-PAGE followed by Western blotting to evaluate the extent of cleavage. Digests were also assessed in functional assays such as CTLL-2 proliferation and HEK-Blue Interleukin reporter assays. As shown in FIGS. 2A-E, essentially complete cleavage by MMP9 protease of the fusion proteins with functional site is seen after overnight incubation. In contrast, proteins containing a scrambled MMP cleavage site are not cut (FIG. 2E).
IL-2 activity was measured using either CTLL-2 cells (ATCC) or the reporter cell line HEK Blue IL2 (Invivogen, San Diego). In brief, for the CTLL-2 assay a titration of untreated and digested samples is added to 40 000 CTLL-2 cells per well in 100 ul medium in a 96-well plate and incubated at 37C in 5% CO2 for 18-22 hr. At the end of this period, 50ug/well Thiazolyl Blue Tetrazolium Bromide (MTT) (Sigma-Aldrich) was added and the plate was incubated for 5 hr at 37C in 5% CO2. Cells were lysed with 100 µl/well 10% SDS (Sigma) acidified with HCl, incubated at 37C for 4 hr, and absorbance was read at 570 nm. Recombinant human or mouse IL-2 (Peprotech and R&D systems respectively) was used as a positive control. FIGS. 3A-B, 3K-L and 3N-P show examples of untreated and digested fusion proteins evaluated in CTLL-2 proliferation assay.

Series [2] concerns collagen. Description: IL-2 fusion protein collagen-agarose pulldown (immunoblot quantitation). In kind it is binding. As to the method:
To test binding to collagen, a pulldown assay using agarose cross-linked to collagen (Sigma) was performed. IL-2 fusion proteins were incubated with collagen-agarose or control agarose beads for 18-22 h at 4C with gentle rotation in 1% BSA/PBS-0.05% Tween 20. After washing, proteins bound to the beads were eluted by resuspending beads in SDS sample buffer (Life Technologies). Bound proteins were then separated by SDS-PAGE on 4-12% BisTris gradient gel followed by immunoblotting with goat anti-mouse IL-2 polyclonal antibody (AF-402-NA; R&D systems). Donkey Anti-goat RP-conjugated antibody was used for detection (Jackson Immuno Research, West Grove, PA) and the blot was developed using the SuperSignal West Femto Maximum sensitivity detection reagent (ThermoFisher) following the manufacturer's recommendations.

Series [3] concerns B16F10. In words: In vivo efficacy in B16F10 melanoma model (Example 12). The protocol:
(§1) For the efficacy studies, C57BL/6 or BALB/c mice were subcutaneously inoculated with malignant cells and when the average tumor volume reached on average 90 mm^3, animals were randomized into 2 groups based on tumor volumes (n=10 mice per treatment group). Mice were dosed intravenously every 3 days (Q3D) at 20 mg/kg. Tumors, body weights and clinical observations were measured/collected twice a week for the duration of the study. Tumor volume is shown in FIGS. 10A-D, 11A, 12A, and 13B-C. […] Liver and kidney enzyme results corresponding to FIGS. 11A and 12A are shown in FIGS. 11B-D and 12B-D, respectively.

Series [4] deals with fibronectin (Homo sapiens, UniProt P02751). In words: IL-2 fusion protein plate binding assay to fibronectin. As to the method:
A similar plate-based assay was developed to interrogate binding of IL-2 fusion variants to fibronectin. 96-well plates were coated with 4 ug/mL of fibronectin (Sigma) or control BSA for 18-22 h at room temperature on shaker (350 rpm). After washing, wells are blocked with protein-free blocking buffer (Pierce) for 90 min, then fusion proteins are titrated in blocking buffer-0.1% Tween 20 pH 7.5 and/or pH 6 and added for 1 hr at room temperature with shaking. After washing, an anti-mouse IL-2 biotin-labelled detection antibody (JES6-5H4, ThermoFisher) is added and binding is detected using Ultra Streptavidin HRP (ThermoFisher). The plate was developed by adding the chromogenic tetramethylbenzidine substrate (Ultra TMB, ThermoFisher). The reaction is stopped by addition of 0.5M H2SO4 and the absorbance is read at 450-650 nm.

The nature of series [5]: In vitro serum stability of fusion protein (sandwich ELISA). In kind it is in vitro ADME. To be noted: 37C up to 72 h; serum of naive and MC38 tumor bearing C57BL/6 mice. As to the method:
We developed an ELISA assay to detect and quantify fusion proteins comprising IL-2 and IL-2Rα moieties. Wells of a 96-well plate are coated overnight with 100 uL of a rat anti-mouse IL-2 monoclonal antibody (JES6-1A12; ThermoFisher) at […] in PBS. After washing, wells are blocked with TBS/0.05% Tween 20/1% BSA, then fusion proteins and/or unknown biological samples are added for 1 hr at room temperature. After washing, an anti-mouse IL-2Rα biotin-labelled detection antibody (BAF2438, R&D systems) is added and binding is detected using Ultra Strepavidin HRP (ThermoFisher). The ELISA plate was developed by adding the chromogenic tetramethylbenzidine substrate (Ultra TMB, ThermoFisher). The reaction is stopped by addition of 0.5M H2SO4 and the absorbance is read at 450-650 nm.
Construct B was incubated at 37C for up to 72 h with serum collected from 8 weeks old female C57BL/6 naive and MC38 tumor bearing mice respectively (n=2 per serum type, tumor volume >3000 mm3 at time of collection), in order to examine both non-specific cleavage as well as MMP-specific off-target cleavage. Samples were collected at 0 h, 4 h, 8 h, 24 h, 48 h and 72 h and the intact non-MMP cleaved fusion protein was quantified using an in-house developed sandwich ELISA.

For series [6], the system named is EMT06. Description: In vivo efficacy in EMT06 breast syngeneic model. Details: species or system mice. To be noted: EMT06, BALB/c, 20 mpk IV Q3D, D20. As to the method:
as §1

Chain of fibronectin (P02751 32-2477, species assumed): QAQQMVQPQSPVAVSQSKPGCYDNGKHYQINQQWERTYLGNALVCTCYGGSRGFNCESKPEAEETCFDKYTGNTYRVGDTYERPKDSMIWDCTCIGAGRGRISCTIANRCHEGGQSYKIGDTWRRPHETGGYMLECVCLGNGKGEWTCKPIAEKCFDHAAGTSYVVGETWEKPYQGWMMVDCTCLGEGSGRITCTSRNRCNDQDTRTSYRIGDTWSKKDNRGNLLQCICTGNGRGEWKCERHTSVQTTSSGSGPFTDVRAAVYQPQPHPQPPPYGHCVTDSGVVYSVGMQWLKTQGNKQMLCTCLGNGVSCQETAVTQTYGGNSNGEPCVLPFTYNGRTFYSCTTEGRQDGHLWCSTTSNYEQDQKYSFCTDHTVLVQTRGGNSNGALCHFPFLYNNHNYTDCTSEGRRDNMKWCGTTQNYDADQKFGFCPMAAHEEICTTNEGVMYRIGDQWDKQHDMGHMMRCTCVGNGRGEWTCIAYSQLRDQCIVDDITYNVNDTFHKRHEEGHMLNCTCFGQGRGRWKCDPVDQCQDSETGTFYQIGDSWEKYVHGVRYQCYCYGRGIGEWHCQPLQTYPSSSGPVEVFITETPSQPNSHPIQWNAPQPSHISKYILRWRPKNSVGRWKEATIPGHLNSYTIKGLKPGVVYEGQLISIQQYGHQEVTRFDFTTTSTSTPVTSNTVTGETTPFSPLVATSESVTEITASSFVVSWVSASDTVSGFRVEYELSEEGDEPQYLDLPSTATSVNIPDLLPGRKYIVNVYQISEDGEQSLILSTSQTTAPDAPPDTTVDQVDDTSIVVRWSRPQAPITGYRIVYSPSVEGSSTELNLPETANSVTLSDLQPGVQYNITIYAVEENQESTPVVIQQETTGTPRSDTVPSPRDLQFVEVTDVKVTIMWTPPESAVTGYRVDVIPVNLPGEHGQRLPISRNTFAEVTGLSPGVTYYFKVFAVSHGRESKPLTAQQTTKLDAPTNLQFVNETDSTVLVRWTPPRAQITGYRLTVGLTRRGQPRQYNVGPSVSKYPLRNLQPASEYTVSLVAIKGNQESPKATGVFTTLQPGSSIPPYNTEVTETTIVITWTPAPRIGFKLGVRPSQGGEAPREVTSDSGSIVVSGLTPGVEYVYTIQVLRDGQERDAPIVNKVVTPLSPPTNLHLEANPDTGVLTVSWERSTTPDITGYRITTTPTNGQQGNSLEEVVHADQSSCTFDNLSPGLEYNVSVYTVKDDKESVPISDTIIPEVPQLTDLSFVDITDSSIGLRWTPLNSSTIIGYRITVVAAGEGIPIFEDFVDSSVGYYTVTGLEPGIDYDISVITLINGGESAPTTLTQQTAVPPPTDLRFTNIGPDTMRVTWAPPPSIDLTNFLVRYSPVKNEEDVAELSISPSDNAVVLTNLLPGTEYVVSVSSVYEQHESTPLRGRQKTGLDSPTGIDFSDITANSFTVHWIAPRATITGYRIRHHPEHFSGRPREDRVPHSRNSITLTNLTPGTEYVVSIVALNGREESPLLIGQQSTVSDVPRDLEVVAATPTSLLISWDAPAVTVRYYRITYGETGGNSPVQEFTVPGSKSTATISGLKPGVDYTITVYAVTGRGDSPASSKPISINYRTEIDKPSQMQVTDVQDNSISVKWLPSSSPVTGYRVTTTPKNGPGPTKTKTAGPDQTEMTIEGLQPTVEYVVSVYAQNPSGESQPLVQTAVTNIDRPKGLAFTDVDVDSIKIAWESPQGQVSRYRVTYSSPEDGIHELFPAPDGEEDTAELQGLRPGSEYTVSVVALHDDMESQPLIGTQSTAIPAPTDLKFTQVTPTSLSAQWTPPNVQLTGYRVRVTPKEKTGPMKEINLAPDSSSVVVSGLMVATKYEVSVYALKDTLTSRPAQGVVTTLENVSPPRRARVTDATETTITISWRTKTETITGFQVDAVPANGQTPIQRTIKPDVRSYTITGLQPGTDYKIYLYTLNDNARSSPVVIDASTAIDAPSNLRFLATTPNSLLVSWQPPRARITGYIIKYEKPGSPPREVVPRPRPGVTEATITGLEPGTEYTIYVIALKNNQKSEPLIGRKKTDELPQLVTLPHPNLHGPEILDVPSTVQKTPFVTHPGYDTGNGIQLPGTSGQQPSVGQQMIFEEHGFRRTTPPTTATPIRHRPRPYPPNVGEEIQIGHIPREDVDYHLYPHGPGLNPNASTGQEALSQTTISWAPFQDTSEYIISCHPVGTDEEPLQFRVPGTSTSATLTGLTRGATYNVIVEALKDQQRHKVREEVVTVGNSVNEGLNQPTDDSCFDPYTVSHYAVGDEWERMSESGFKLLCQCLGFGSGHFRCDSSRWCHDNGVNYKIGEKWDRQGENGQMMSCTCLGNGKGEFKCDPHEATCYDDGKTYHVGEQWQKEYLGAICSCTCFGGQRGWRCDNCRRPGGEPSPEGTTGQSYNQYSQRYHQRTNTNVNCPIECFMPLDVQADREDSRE

B1: Construct B: SEQ ID NO 101: m IL2-2x(SG4)-MMPcs1-2x(G4S)-IL2Ralpha-mIgG1 Fc (protein)
chain: APTSSSTSSSTAEAQQQQQQQQQQQQHLEQLLMDLQELLSRMENYRNLKLPRMLTFKFYLPKQATELKDLQCLEDELGPLRHVLDLTQSKSFQLEDAENFISNIRVTVVKLKGSDNTFECQFDDESATVVDFLRRWIAFCQSIISTSPQSGGGGSGGGGGPLGVRGGGGGSGGGGSELCLYDPPEVPNATFKALSYKNGTILNCECKRGFRRLKELVYMRCLGNSWSSNCQCTSNSHDKSRKQVTAQLEHQKEQQTTTDMQKPTQSMHQENLTGHCREPPPWKHEDSKRIYHFVEGQSVHYECIPGYKALQRGPAISICKMKCGKTGWTQPQLTCVDEREHHRFLASEESQGSRNSSPESETSCPITTTDFPQPTETTAMTETFVLTMEYKGCKPCICTVPEVSSVFIFPPKPKDVLTITLTPKVTCVVVDISKDDPEVQFSWFVDDVEVHTAQTQPREEQFNSTFRSVSELPIMHQDWLNGKEFKCRVNSAAFPAPIEKTISKTKGRPKAPQVYTIPPPKEQMAKDKVSLTCMITDFFPEDITVEWQWNGQPAENYKNTQPIMDTDGSYFVYSKLNVQKSNWEAGNTFTCSVLHEGLHNHHTEKSLSHSPGK
In the case of B1, in series [1] (cleaved by MMP-9), the “CTLL-2 cell proliferation, MMP-9 treated construct” value is “stimulates CTLL-2 cell proliferation in a dose dependent manner”. For the same molecule, in series [1] (uncleaved), the “CTLL-2 cell proliferation, uncleaved construct” value is “minimally stimulatory”. This molecule returned a Bound in series [2] (blot quantitation, collagen-agarose bound fraction) of 2306. Moreover, the Normalized in series [2] (bound fraction relative to Construct B (fold)) stood at 1. Moreover, in series [2] (fraction bound to collagen-agarose), the “Bound (% input)” value was 0.3%. The “Max TGI %” value turned out to be 49% in series [3] (B16F10, C57BL/6, 20 mpk IV Q3D, D12) and 43% in series [6]. For the same molecule, in series [3] (B16F10 model, 20 mg/kg IV Q3D), the “signs of toxicity (body weight loss, liver and/or kidney enzymes, clinical observations)” value was “no signs of toxicity”. Besides, the “fibronectin binding at acidic pH” value in series [4] (pH 6) is “No significant binding”. The “fibronectin binding at pH 7.5” value in series [4] (pH 7.5 (neutral)) was “No significant binding”. Moreover, the “stability of intact fusion protein in serum” value in series [5] is “stable”.
